Square brackets hold non-standard residues; d marks the D form. Pra = C#CC[C@H](N)C(=O)O
T1: C. elegans DPY19 (CeDPY19), tryptophan C-mannosyltransferase, with a C-terminal FLAG3 tag (C. elegans, UniProt P34413 1-683)
T1 construct: C. elegans DPY19 (CeDPY19), synthetic gene construct; Eluted from the FLAG gel with FLAG peptide; no cleavage of the tag is described; also called CMT
T1 sequence: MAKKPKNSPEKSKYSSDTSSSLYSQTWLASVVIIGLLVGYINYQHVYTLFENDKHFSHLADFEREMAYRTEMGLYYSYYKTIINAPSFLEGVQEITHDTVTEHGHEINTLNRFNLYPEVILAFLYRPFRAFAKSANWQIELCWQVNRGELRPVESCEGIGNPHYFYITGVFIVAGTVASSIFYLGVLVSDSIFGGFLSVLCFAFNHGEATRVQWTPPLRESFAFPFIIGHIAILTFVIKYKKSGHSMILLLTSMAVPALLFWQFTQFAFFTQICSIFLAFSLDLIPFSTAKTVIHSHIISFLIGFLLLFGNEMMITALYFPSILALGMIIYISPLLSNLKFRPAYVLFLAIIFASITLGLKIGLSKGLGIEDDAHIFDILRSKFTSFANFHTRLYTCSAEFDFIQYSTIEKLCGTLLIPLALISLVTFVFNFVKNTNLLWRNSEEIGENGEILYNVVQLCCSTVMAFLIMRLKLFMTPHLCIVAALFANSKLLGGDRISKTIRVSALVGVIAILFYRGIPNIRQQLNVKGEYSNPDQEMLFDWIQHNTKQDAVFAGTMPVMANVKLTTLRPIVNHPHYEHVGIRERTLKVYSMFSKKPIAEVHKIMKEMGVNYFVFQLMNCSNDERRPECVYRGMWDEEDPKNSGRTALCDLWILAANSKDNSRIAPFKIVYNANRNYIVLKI

B1: CMT2-Fab, synthetic Fab selected by phage display against CeDPY19 (Fab, V domains shown)
VH: EVQLVESGGGLVQPGGSLRLSCAASGFNISSSSIHWVRQAPGKGLEWVASISSSYGYTSYADSVKGRFTISADTSKNTAYLQMNSLRAEDTAVYYCARSSSVYWSWWGYSAFDYWGQGTLVTVSS
VL: DIQMTQSPSSLSASVGDRVTITCRASQSVSSAVAWYQQKPGKAPKLLIYSASSLYSGVPSRFSGSRSGTDFTLTISSLQPEDFATYYCQQGASEPITFGQGTKVEIK
notes: source: E. coli C43 (Pro+), purified (Protein L, Resource S)
B2: Synthetic acceptor octapeptide WEHI-1886493 (Ac-Pra-GSWAKWS-NH2) (peptide)
peptide: Ac-[Pra]GSWAKWS-NH2
SMILES: C#CC[C@H](NC(C)=O)C(=O)NCC(=O)N[C@@H](CO)C(=O)N[C@@H](Cc1c[nH]c2ccccc12)C(=O)N[C@@H](C)C(=O)N[C@@H](CCCCN)C(=O)N[C@@H](Cc1c[nH]c2ccccc12)C(=O)N[C@@H](CO)C(N)=O
notes: Eight residues in all: Pra (propargylglycine) followed by GSWAKWS; also called acceptor peptide; source: synthetic peptide

What was measured:
[1] = molecular target: T2, Biotinylated C. elegans DPY19 (CeDPY19) with a C-terminal Avitag (Caenorhabditis elegans (strain not …, UniProt P34413, biotin (enzymatic, BirA) on the Avitag)); test: ELISA; multipoint protein ELISA; 30 nM biotinylated CeDPY19 immobilised on a neutravidin-coated plate, threefold serial dilutions of purified Fab from 4 uM, 20 min, 4 °C; 20 mM HEPES pH 7.4, 150 mM NaCl, 0.01% LMNG, 0.001% CHS, 0.5% BSA; detected with HRP-protein L; conditions: both partners purified
T2 construct: C. elegans DPY19 (CeDPY19); also called biotinylated CeDPY19; target; not shown: Avitag, C-terminal, kept

[2] = molecular target: T1, C. elegans DPY19 (CeDPY19), tryptophan …; test: cryo-EM structure; CeDPY19-CMT2-Fab-anti-Fab Nb complex (35 uM) with 1 mM acceptor peptide WEHI-1886493, 1-2 h on ice; conditions: both partners purified

Row | Binder | EC50 [1] [nM] | binding result [2]
1 | B1 | 17 | –
2 | B2 | – | binds
